Reference: patent US20220259327A1 (published 2022)
Where a chain is given by its changes, count along the chain named. In names and notes the source's numbering stands.

T1: cyCD19 ECD (cynomolgus, UniProt A0A2K5W8L9 20-292)
T1 construct: extracellular domain; also called cynomolgus CD19 extracellular domain
T1 sequence: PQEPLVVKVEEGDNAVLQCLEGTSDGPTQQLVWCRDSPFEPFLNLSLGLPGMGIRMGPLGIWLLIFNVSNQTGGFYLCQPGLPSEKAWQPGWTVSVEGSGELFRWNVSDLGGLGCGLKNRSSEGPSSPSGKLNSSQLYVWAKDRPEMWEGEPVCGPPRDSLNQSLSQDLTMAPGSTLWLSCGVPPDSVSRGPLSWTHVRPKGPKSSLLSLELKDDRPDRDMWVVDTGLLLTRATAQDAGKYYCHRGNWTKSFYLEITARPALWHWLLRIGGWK

B1: wild-type humanized anti-human CD19 antibody (var.0) (antibody, V domains shown)
VH: QVQLVQSGAEVKKPGASVKVSCKASGYTFTDYIMHWVRQAPGQGLEWMGYINPYNDGSKYTEKFNGKATMTSDTSISTAYMELSRLRSDDTAVYYCARGTYYYGSALFDYWGQGTTVTVSS
VL: DIVMTQTPLSLSVTPGQPASISCKSSQSLENSNGNTYLNWYLQKPGQSPQLLIYRVSKRFSGVPDRFSGSGSGTDFTLKISRVEAEDVGVYYCLQLTHVPYTFGQGTKLEIK
B2: humanized anti-human CD19 antibody var.5 (S27eP), named clone 8B8-018 (antibody, V domains shown)
VH: B1 VH with N65Q, K67R, A68V
VL: B1 VL with S32P
notes: also called variant 5
B3: humanized anti-human CD19 antibody var.9 (S27eP/N28S) (antibody, V domains shown)
VH: B1 VH with N65Q, K67R, A68V
VL: B1 VL with S32P, N33S

Biological target: T1, cyCD19 ECD
Assay: binding to cyCD19 ECD, method not stated

EC50 [µg/mL] | Binder
0.313 | B1
0.255 | B2
0.435 | B3
